Data as given in article PMC2796084 (Biochemistry, 2009).

Target: the molecule itself
Test: tryptophan fluorescence

B1: FtsZ-L68W (natural protein, E. coli, UniProt P0A9A6 1-383, looked up)
chain: MFEPMELTNDAVIKVIGVGGGGGNAVEHMVRERIEGVEFFAVNTDAQALRKTAVGQTIQIGSGITKGWGAGANPEVGRNAADEDRDALRAALEGADMVFIAAGMGGGTGTGAAPVVAEVAKDLGILTVAVVTKPFNFEGKKRMAFAEQGITELSKHVDSLITIPNDKLLKVLGRGISLLDAFGAANDVLKGAVQGIAELITRPGLMNVDFADVRTVMSEMGYAMMGSGVASGEDRAEEAAEMAISSPLLEDIDLSGARGVLVNITAGFDLRLDEFETVGNTIRAFASDNATVVIGTSLDPDMNDELRVTVVATGIGMDKRPEITLVTNKQVQQPVMDRYQQHGMAPLTQEQKPVAKVVNDNAPQTAKEPDYLDIPAFLRKQAD
binding result: binds
